The values below come from IntAct's records for PubMed 10984058.

First the molecules themselves.
B1: Myosin-2 (Saccharomyces cerevisiae), P19524 (parent)
chain: MSFEVGTRCWYPHKELGWIGAEVIKNEFNDGKYHLELQLEDDEIVSVDTKDLNNDKDQSLPLLRNPPILEATEDLTSLSYLNEPAVLHAIKQRYSQLNIYTYSGIVLIATNPFDRVDQLYTQDMIQAYAGKRRGELEPHLFAIAEEAYRLMKNDKQNQTIVVSGESGAGKTVSAKYIMRYFASVEEENSATVQHQVEMSETEQKILATNPIMEAFGNAKTTRNDNSSRFGKYLEILFDKDTSIIGARIRTYLLERSRLVYQPPIERNYHIFYQLMAGLPAQTKEELHLTDASDYFYMNQGGDTKINGIDDAKEYKITVDALTLVGITKETQHQIFKILAALLHIGNIEIKKTRNDASLSADEPNLKLACELLGIDAYNFAKWVTKKQIITRSEKIVSNLNYSQALVAKDSVAKFIYSALFDWLVENINTVLCNPAVNDQISSFIGVLDIYGFEHFEKNSFEQFCINYANEKLQQEFNQHVFKLEQEEYVKEEIEWSFIEFNDNQPCIDLIENKLGILSLLDEESRLPAGSDESWTQKLYQTLDKSPTNKVFSKPRFGQTKFIVSHYALDVAYDVEGFIEKNRDTVSDGHLEVLKASTNETLINILEGLEKAAKKLEEAKKLELEQAGSKKPGPIRTVNRKPTLGSMFKQSLIELMNTINSTNVHYIRCIKPNADKEAWQFDNLMVLSQLRACGVLETIRISCAGFPSRWTFEEFVLRYYILIPHEQWDLIFKKKETTEEDIISVVKMILDATVKDKSKYQIGNTKIFFKAGMLAYLEKLRSNKMHNSIVMIQKKIRAKYYRKQYLQISQAIKYLQNNIKGFIIRQRVNDEMKVNCATLLQAAYRGHSIRANVFSVLRTITNLQKKIRKELKQRQLKQEHEYNAAVTIQSKVRTFEPRSRFLRTKKDTVVVQSLIRRRAAQRKLKQLKADAKSVNHLKEVSYKLENKVIELTQNLASKVKENKEMTERIKELQVQVEESAKLQETLENMKKEHLIDIDNQKSKDMELQKTIENNLQSTEQTLKDAQLELEDMVKQHDELKEESKKQLEELEQTKKTLVEYQTLNGDLQNEVKSLKEEIARLQTAMSLGTVTTSVLPQTPLKDVMGGGASNFNNMMLENSDLSPNDLNLKSRSTPSSGNNHIDSLSVDRENGVNATQINEELYRLLEDTEILNQEITEGLLKGFEVPDAGVAIQLSKRDVVYPARILIIVLSEMWRFGLTKQSESFLAQVLTTIQKVVTQLKGNDLIPSGVFWLANVRELYSFVVFALNSILTEETFKNGMTDEEYKEYVSLVTELKDDFEALSYNIYNIWLKKLQKQLQKKAINAVVISESLPGFSAGETSGFLNKIFANTEEYTMDDILTFFNSIYWCMKSFHIENEVFHAVVTTLLNYVDAICFNELIMKRNFLSWKRGLQLNYNVTRLEEWCKTHGLTDGTECLQHLIQTAKLLQVRKYTIEDIDILRGICYSLTPAQLQKLISQYQVADYESPIPQEILRYVADIVKKEAALSSSGNDSKGHEHSSSIFITPETGPFTDPFSLIKTRKFDQVEAYIPAWLSLPSTKRIVDLVAQQVVQDGH
partner: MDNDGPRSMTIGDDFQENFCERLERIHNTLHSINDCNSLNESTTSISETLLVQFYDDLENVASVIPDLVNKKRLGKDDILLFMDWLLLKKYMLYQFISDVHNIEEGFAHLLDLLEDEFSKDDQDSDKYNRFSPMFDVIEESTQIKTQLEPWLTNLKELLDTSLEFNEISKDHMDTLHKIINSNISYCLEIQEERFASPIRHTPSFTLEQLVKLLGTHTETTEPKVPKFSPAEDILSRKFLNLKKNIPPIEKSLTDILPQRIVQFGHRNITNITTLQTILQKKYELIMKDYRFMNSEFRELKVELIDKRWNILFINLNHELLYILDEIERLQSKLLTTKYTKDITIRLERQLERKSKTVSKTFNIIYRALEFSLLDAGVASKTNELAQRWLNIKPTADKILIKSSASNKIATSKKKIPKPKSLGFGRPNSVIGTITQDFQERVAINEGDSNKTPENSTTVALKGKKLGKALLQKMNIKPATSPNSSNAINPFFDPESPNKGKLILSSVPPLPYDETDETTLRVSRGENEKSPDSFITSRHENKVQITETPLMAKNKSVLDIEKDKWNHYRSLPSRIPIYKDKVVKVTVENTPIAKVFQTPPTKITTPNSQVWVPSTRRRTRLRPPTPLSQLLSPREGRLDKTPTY

In the assay the parent is B1. To be noted: with kar9_yeast KAR9, P32526.
In the case of Y1161F;N1171Y;L1413S;I1453V;I1498M, the “effect of a mutation on the interaction” value is recorded as “disrupting interaction strength”.

E1168K;N1254D: the “effect of a mutation on the interaction” value is “disrupting interaction strength”.
